Reference: US20150266962A1 (Pfizer, published 2015)

Assays:
[1] = target: T1, recombinant human IL-13 receptor alpha 2 (hIL-13-Rα2) (human, UniProt Q14627 27-343); test: direct ELISA on recombinant hIL-13-Rα2 (given as ED50)
T1 construct: Recombinant soluble antigen coated on ELISA plates or used in Biacore; also called rec hIL-13Rα2; rhIL-13Rα2
T1 sequence (looked up): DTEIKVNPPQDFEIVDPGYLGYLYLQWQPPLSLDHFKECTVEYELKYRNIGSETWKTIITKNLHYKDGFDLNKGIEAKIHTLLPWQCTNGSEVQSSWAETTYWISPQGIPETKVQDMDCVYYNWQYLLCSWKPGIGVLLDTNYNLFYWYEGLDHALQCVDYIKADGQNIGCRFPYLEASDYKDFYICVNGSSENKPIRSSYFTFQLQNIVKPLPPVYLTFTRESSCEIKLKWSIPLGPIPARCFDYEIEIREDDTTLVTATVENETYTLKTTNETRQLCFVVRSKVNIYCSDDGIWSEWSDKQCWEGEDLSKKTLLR
Protocol: (§1) Chimeric antibodies 07 and 08 (ch07 and ch08) were constructed having murine heavy chain and light chain variable region sequences with human IgG1 heavy chain constant regions and human kappa light chain constant regions using methods known in the art. To assess the binding activity and specificity of ch07 and ch08, a standard direct ELISA protocol was performed utilizing recombinant hIL-13-Rα2 and hIL-13Ra1, receptors for IL-13 cytokine. The binding was detected by horseradish peroxidase (HRP) conjugated goat anti-human IgGKappa.

[2] = target: T2, cynomolgus monkey IL-13-Rα2 ECD/TM domain with C-terminal Flag tag, on transfected HEK293 cells (cynomolgus monkey, UniProt Q14627 27-363 (human entry)); test: FACS on HEK293 cells transfected with cyno-IL-13-Rα2 (given as ED50)
T2 construct: also called cyno-IL-13-Rα2; cyno IL-13Rα2; not shown: Flag tag at the C-terminal end
T2 chain: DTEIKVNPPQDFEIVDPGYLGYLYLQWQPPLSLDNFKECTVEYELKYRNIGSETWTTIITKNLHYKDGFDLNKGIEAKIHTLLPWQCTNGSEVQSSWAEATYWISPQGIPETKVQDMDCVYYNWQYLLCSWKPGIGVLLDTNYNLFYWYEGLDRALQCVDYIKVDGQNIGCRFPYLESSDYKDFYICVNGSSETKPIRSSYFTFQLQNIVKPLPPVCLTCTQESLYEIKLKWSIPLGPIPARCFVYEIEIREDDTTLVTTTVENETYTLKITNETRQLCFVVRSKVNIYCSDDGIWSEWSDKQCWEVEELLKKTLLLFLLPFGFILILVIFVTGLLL
Protocol: The ECD/TM domain of cyno IL-13-Rα2 fused with Flag tag at the C-terminal end was cloned into the pSMED2 expression vector. HEK293 suspension cells were transiently transfected with cyno-IL-13-Rα2 containing plasmid and pSMED2 vector (as a mock transfection). The cells were harvested 72 hours later and subjected to FACS analysis. 4 antibodies including ch07, ch08, hu08v1.0/1.0 and hu08v1.1/1.1 were tested. The binding on the cell surface cyno-IL-13-Rα2 was detected with R-Phycoerythrin-labeled goat anti-human or mouse IgG.

[3] = target: T1, recombinant human IL-13 receptor alpha …; test: competition ELISA on plate, competitor biotinylated ch07, purified protein
[4] = target: T1, recombinant human IL-13 receptor alpha …; test: standard ELISA on hIL-13-Rα2 (given as ED50)
[5] = target: T3, recombinant human IL-13 receptor alpha 1 (hIL-13Rα1) (human, UniProt P78552 22-343); test: direct ELISA on plate-coated recombinant hIL-13Rα1, detected with HRP goat anti-human Ig kappa
T3 construct: also called hIL-13Ra1
T3 sequence (looked up): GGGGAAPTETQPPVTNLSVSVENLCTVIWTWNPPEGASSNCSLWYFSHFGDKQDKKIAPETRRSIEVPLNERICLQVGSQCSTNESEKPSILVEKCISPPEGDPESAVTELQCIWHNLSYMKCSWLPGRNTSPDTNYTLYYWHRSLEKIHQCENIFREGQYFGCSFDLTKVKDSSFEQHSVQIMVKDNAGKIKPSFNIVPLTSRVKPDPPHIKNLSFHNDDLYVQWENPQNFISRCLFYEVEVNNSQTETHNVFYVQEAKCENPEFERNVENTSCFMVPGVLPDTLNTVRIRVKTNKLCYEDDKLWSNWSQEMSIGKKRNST
Protocol: as §1

[6] = target: T1, recombinant human IL-13 receptor alpha …; test: SPR Biacore, human Fab Capture Kit, 1:1 Langmuir model, pH 6.0
Protocol: (§2) To assess the binding kinetics of the ch07 and ch08 antibodies, SPR (Surface Plasmon Resonance) experiments were conducted on a Biacore® T100 or T200 instrument using a Biacore® human Fab Capture Kit (GE Healthcare). All data was analyzed using the Biacore® T100 evaluation software version 2.0 with a 1:1 Langmuir binding model.

[7] = target: T1, recombinant human IL-13 receptor alpha …; test: SPR Biacore, human Fab Capture Kit, 1:1 Langmuir model, pH 7.4
Protocol: as §2

[8] = target: T1, recombinant human IL-13 receptor alpha …; test: competition ELISA on coated recombinant hIL-13-Rα2, competitor biotin-ch08
Protocol: A competition ELISA was performed to assess whether hu08 1.0 and hu08 v1.1 compete with ch08 for IL-13-Rα2 binding. Recombinant hIL-13-Rα2 was coated onto 96-well plates at 50 ul of […] in PBS overnight at 4° C. Plates were then blocked and washed following standard ELISA protocol. A 3-fold serially diluted ch08, hu08 1.0 and hu08 v1.1, and negative control ch07 (2× final concentration) were mixed with biotinylated ch08 (2×EC₅₀). 50 μl of the antibody and biotin-ch08 mixture were added to the plate and incubated for 1 hour at room temperature. The amount of biotin-ch08 bound was detected by HRP conjugated streptavidin.

B1: chimeric antibody ch07 (antibody, human IgG1, V domains shown)
VH: QVQLKESGPGLVAPSQSLSINCTVSGFSLTKYGVHWIRQSPGKGLEWLGVKWAGGSTDYNSALMSRLTISKDNNKSQVFLKMNSLQSDDSAMYYCARDHRDAMDYWGQGTSVTVSS
VL: QVVLTQSPAIMSASPGERVTMTCTASLSVSSTYLHWYHQKPGSSPKLWIYSTSNLASGVPARFSGSGSGTSYSLTISSMEAEDAATYYCHQYHRSPLTFGSGTKLELK
notes: also called chimeric antibody 07; biotin-ch07 (biotinylated form)
- EC50 [1]: 0.15 nM
- EC50 [2]: 1.49 nM
- IC50 [3]: 2.21 nM
- EC50 [4]: 0.1 nM
- binding result [5]: no binding (tested: about 7 nM)
- Kd [6]: 5.24 nM
- koff [6]: 0.000337 s⁻¹
- kon [6]: 64300 M⁻¹ s⁻¹
- Kd [7]: 0.648 nM
- koff [7]: 0.000234 s⁻¹
- kon [7]: 361000 M⁻¹ s⁻¹

B2: chimeric antibody ch08 (antibody, human IgG1, V domains shown)
VH: EVQLVESGGDLVRPGGSLQLSCAASGFTFSRNGMSWVRQTPDRRLEWVATVSSGGSYIYYADSVKGRFTISRDNARNTLYLQMSSLKSEDTAMYYCARQGTTALATRFFDVWGAGTTVTVSS
VL: DIVMTQSHKFISTSVGDRVSITCKASQDVGTAVAWYQQIPGQSPKLLIYSASYRSTGIPDRFTGSGSGTDFSFIISSVQAEDLALYYCQHHYSAPWTFGGGTTLDIK
notes: also called ch08Hc + Lc; chimeric antibody 08
- EC50 [1]: 0.076 nM
- IC50 [8]: 1.98 nM
- EC50 [2]: 1.81 nM
- binding result [5]: no binding (tested: about 7 nM)
- Kd [6]: 5.36 nM
- koff [6]: 0.000381 s⁻¹
- kon [6]: 71200 M⁻¹ s⁻¹
- Kd [7]: 0.964 nM
- koff [7]: 0.000416 s⁻¹
- kon [7]: 432000 M⁻¹ s⁻¹
